In US20140288007A1:

B1: RgpB (mature Arg-gingipain purified from P. gingivalis HG66) (protein)
chain: YTPVEEKENGRMIVIVPKKYEEDIEDFVDWKNQRGLRTEVKVAEDIASPVTANAIQQFVKQEYEKEGNDLTYVLLVGDHKDIPAKITPGIKSDQVYGQIVGNDHYNEVFIGRFSCESKEDLKTQIDRTIHYERNITTEDKWLGQALCIASAEGGPSADNGESDIQHENIIANLLTQYGYTKIIKCYDPGVTPKNIIDAFNGGISLANYTGHGSETAWGTSHFGTTHVKQLTNSNQLPFIFDVACVNGDFLYNVPCFAEALMRAQKDGKPTGTVAIIASTINQSWASPMRGQDEMNEILCEKHPNNIKRTFGGVTMNGMFAMVEKYKKDGEKMLDTWTVFGDPSLLVRTLVPTKMQVTAPANISASAQTFEVACDYNGAIATLSDDGDMVGTAIVKDGKAIIKLNESIADETNLTLTVVGYNKVTVIKDVKVEGTSIADVANDKPYTVAVSGKTITVESPAAGLTIFDMNGRRVATAKNRMVFEAQNGVYAVRIATEGKTYTEKVIVK

Assays:
[1] = target: Kgp on P. gingivalis W50 whole cells (Lys-specific activity, GPKNa substrate) (Porphyromonas gingivalis) (UniProt Q51817); experiment: cell-based or functional assay
papain = papain (UniProt P00784); experiment: cell-based or functional assay
Sequence of UniProt P00784 (P00784 134-345 limits assumed): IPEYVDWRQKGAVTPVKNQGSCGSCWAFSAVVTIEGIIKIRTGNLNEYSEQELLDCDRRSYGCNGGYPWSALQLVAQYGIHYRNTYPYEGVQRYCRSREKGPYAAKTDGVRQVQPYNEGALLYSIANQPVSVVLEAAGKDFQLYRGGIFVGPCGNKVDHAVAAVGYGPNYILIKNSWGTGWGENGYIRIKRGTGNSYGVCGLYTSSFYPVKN

[2] = target: RgpB (mature Arg-gingipain purified from P. gingivalis HG66) (Porphyromonas gingivalis) (UniProt P95493); experiment: cell-based or functional assay
caspase 3 = experiment: cell-based or functional assay
[3] = target: Whole cell W50 (proteolytic activity on BapNa substrate); experiment: cell-based or functional assay
[4] = target: RgpB (mature Arg-gingipain purified from P. gingivalis HG66) (Porphyromonas gingivalis) (UniProt P95493); experiment: enzyme inhibition kinetics (non-competitive, Ki′), chromogenic substrate BapNA, secondary plot of Vmax observed against inhibitor concentration
[5] = target: T1, recombinant RgpB propeptide, P95493
T1 chain: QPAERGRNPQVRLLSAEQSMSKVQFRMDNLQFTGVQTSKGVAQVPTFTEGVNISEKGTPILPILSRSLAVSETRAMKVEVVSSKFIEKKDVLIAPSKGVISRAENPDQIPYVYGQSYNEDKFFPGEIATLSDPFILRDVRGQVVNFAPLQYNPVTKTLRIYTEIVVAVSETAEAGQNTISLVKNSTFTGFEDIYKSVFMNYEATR

Molecule | % Proteolytic Activity (whole cells, GPKNa; inhibitor 40 mg/L) [1] | % Proteolytic Activity (whole cells, GPKNa; inhibitor 80 mg/L) [1] | % Proteolytic Activity (BapNa; inhibitor 40 mg/L) (papain) | % Proteolytic Activity (BapNa; inhibitor 50 mg/L) [2] | % Proteolytic Activity (Ac-DEVD-pNa 200 uM; inhibitor 100 mg/L) (caspase 3) | % Proteolytic Activity (whole cells, BapNa; inhibitor 40 mg/L) [3] | % Proteolytic Activity (whole cells, BapNa; inhibitor 80 mg/L) [3] | inhibition of RgpB activity, DQ BSA, 2 h incubation [2] | Ki [4] | RgpB proteolytic activity, DQ-BSA fluorescent substrate, 11 h time course [5]
recombinant Kgp propeptide (from UniProt Q51817 25-1732) | 65% | 40% | 88% | 105% | 121% |  |  |  |  | 
recombinant RgpB propeptide (from UniProt P95493 25-229) |  |  | 68% |  | 129% | 68% | 59% | 50% | 11.8 nM | 
B1 |  |  |  |  |  |  |  |  |  | Addition of 10 mg/L (0.44 µM) or 20 mg/L (0.88 µM) RgpB propeptide resulted in near total inhibition of RgpB proteolytic activity
